Data taken from PMC10998907.

What was measured:
[1] = biological target: NiV-RBP ectodomain (NiV attachment glycoprotein ectodomain), homotetramer (Nipah virus) (UniProt Q9IH62); assay: negative-stain EM
[2] = biological target: NiV-RBP ectodomain homotetramer (Nipah virus); assay: cryo-EM structure

For “NiV-RBP ectodomain (NiV attachment glycoprotein ectodomain), homotetramer (from UniProt Q9IH62 1-602) (domain or fragment)”, the stoichiometry N [1] was 4.
For “NiV-RBP ectodomain homotetramer (domain or fragment)”, the stoichiometry N [2] was 4.
